# Measured values reported in patent US20060287508A1 (Chugai, published 2006).
# What was measured:
# hTF (Thromborel S) [1] = target: T1, hTF (Thromborel S) (human, UniProt P13726 33-295); assay: cell-based or functional assay
# shTF [2] = target: T2, shTF (human, UniProt P13726 33-251, limits assumed); assay: competitive ELISA on coated shTF against biotinylated anti-human TF antibody; anion exchange main peak
# T2 construct: also called human tissue factor
# Experimental: (§1) shTF was adjusted to 20 nM with coating buffer (hereafter, indicated as CB), dispensed at 100 μl/well into a 96-well plate and incubated at 4° C. overnight. Each well was washed three times with rinse buffer (hereafter, indicated as RB); 200 μl dilution buffer (hereafter, indicated as DB) was added to each well. The plate was left standing at room temperature for 2 hours for blocking. […] The plate was washed three times with RB. After 100 μl ALP-streptavidin diluted 5,000-fold with DB was dispensed to each well, the plate was left standing for 1 hour at room temperature. Each well was washed 5 times with RB, and SIGMA104 adjusted with substrate buffer (hereafter, indicated as SB) to 1 mg/ml was dispensed to each well. Plates were left standing for 30 min at room temperature for color development and measured with a microplate reader at a wavelength of 405 nm and a control wavelength of 655 nm.
# This was taken as the binding activity.
# shTF [3] = target: T2, shTF; assay: TF binding activity after 4 weeks at 40 C, pH 7.5, against own initial value (FIG. 13B)
# hTF (Thromborel S) [4] = target: T1, hTF (Thromborel S); assay: cell-based or functional assay; remark: listed apart in the source
# shTF [5] = target: T2, shTF; assay: competitive ELISA on coated shTF against biotinylated anti-human TF antibody; anion exchange subpeak
# Experimental: as §1
# This was taken as the binding activity.
# T1 sequence (P13726 33-295 limits assumed): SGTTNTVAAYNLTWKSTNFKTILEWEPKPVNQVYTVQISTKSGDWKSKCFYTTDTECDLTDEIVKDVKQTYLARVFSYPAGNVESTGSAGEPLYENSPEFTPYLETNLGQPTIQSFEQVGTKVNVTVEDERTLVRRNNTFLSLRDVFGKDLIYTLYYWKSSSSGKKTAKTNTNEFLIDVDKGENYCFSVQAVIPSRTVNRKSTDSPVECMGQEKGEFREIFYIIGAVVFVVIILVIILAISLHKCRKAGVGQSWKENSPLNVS
# T2 sequence (P13726 33-251 limits assumed): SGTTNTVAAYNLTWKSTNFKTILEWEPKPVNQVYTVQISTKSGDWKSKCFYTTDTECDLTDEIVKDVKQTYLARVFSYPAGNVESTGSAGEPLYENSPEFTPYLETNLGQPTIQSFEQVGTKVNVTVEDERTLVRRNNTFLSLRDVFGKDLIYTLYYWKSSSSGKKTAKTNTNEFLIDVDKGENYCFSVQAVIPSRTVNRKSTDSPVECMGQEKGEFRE
binder,measurement,setting,value
"anti-human TF antibody N28D mutant (antibody, human IgG4 S228P, kappa, V domains shown) VH: QVQLLESGAVLARPGTSVKISCKASGFDIKDYYMHWVKQRPGQGLEWIGGNDPANGHSMYDPKFQGRVTITADTSTSTVFMELSSLRSEDTAVYYCARDSGYAMDYWGQGTLVTVSS VL: DIQMTQSPSSLSASVGDRVTITCKASQDIKSFLSWYQQKPEKAPKSLIYYATSLADGVPSRFSGSGSGTDYTLTISSLQPEDFATYYCLQHGESPYTFGGGTKVEIKR",Calculated concentration (ng/ml) at 250 ng/ml added,hTF (Thromborel S) [1],253 ng/mL
"anti-human TF antibody N51D mutant (antibody, human IgG4 S228P, kappa, V domains shown) VH: QVQLLESGAVLARPGTSVKISCKASGFNIKDYYMHWVKQRPGQGLEWIGGDDPANGHSMYDPKFQGRVTITADTSTSTVFMELSSLRSEDTAVYYCARDSGYAMDYWGQGTLVTVSS VL: DIQMTQSPSSLSASVGDRVTITCKASQDIKSFLSWYQQKPEKAPKSLIYYATSLADGVPSRFSGSGSGTDYTLTISSLQPEDFATYYCLQHGESPYTFGGGTKVEIKR",Calculated concentration (ng/ml) at 250 ng/ml added,hTF (Thromborel S) [1],164 ng/mL
"anti-human TF antibody N51D/N55D double mutant (antibody, human IgG4 S228P, kappa, V domains shown) VH: QVQLLESGAVLARPGTSVKISCKASGFNIKDYYMHWVKQRPGQGLEWIGGDDPADGHSMYDPKFQGRVTITADTSTSTVFMELSSLRSEDTAVYYCARDSGYAMDYWGQGTLVTVSS VL: DIQMTQSPSSLSASVGDRVTITCKASQDIKSFLSWYQQKPEKAPKSLIYYATSLADGVPSRFSGSGSGTDYTLTISSLQPEDFATYYCLQHGESPYTFGGGTKVEIKR",Calculated concentration (ng/ml) at 250 ng/ml added,hTF (Thromborel S) [1],31.3 ng/mL
"anti-human TF antibody N55D mutant (antibody, human IgG4 S228P, kappa, V domains shown) VH: QVQLLESGAVLARPGTSVKISCKASGFNIKDYYMHWVKQRPGQGLEWIGGNDPADGHSMYDPKFQGRVTITADTSTSTVFMELSSLRSEDTAVYYCARDSGYAMDYWGQGTLVTVSS VL: DIQMTQSPSSLSASVGDRVTITCKASQDIKSFLSWYQQKPEKAPKSLIYYATSLADGVPSRFSGSGSGTDYTLTISSLQPEDFATYYCLQHGESPYTFGGGTKVEIKR",Calculated concentration (ng/ml) at 250 ng/ml added,hTF (Thromborel S) [1],49.8 ng/mL
"anti-human TF antibody described in WO 99/51743 (humanized heavy chain version i, humanized light chain version b2) (antibody, human IgG4 S228P, kappa, V domains shown, Expressed as human IgG from vector pN5KG4P-AHi-ALb2; also called original anti-human TF antibody; Original) VH: QVQLLESGAVLARPGTSVKISCKASGFNIKDYYMHWVKQRPGQGLEWIGGNDPANGHSMYDPKFQGRVTITADTSTSTVFMELSSLRSEDTAVYYCARDSGYAMDYWGQGTLVTVSS VL: DIQMTQSPSSLSASVGDRVTITCKASQDIKSFLSWYQQKPEKAPKSLIYYATSLADGVPSRFSGSGSGTDYTLTISSLQPEDFATYYCLQHGESPYTFGGGTKVEIKR",Calculated concentration (ng/ml) at 250 ng/ml added,hTF (Thromborel S) [1],248 ng/mL
same,Neutralizing activity ratio (%),hTF (Thromborel S) [1],99.1%
same,"Binding Activity, Peak 1 (% of standard antibody)",shTF [2],100%
same,TF binding activity after 4 weeks of accelerated testing (% of its activity before),shTF [3],~60%
same,"TF neutralizing activity (Equation 2, relative to standard antibody)",hTF (Thromborel S) [4],66%
same,"TF neutralizing activity after accelerated testing at 40 C for 4 weeks, relative to the initial value",hTF (Thromborel S) [4],~40%
same,"Binding Activity, Peak 2 (% of standard antibody)",shTF [5],70.6%
